We go through 37 molecules from US20240132624A1 (Ablynx, published 2024).

For test [1], the target named is T1, human FcRn/b2M (human, UniProt P61769 21-119, biotinylated).
T1 construct: bought recombinant biotinylated protein (ACRO FCM-H82W4 or Immunitrack ITF01); also called hFcRn; hFcRn/hb2M
The experiment in a line: SPR pH 6.0.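 Also: surface plasmon resonance kinetics at 25 °C, diluted periplasmic extracts injected over immobilized ligand surfaces, 120 s association then 600–3600 s dissociation, running buffer containing 150 mM NaCl.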
Experimental: (§1) All kinetic measurements have been performed on ProteOn XPR36 (BioRad Laboratories, Inc.), MASS-2 (Sierra sensors, Gmbh) or SPR-32 (Bruker Corporation). […] The phytip purified periplasmic extracts were diluted 1:10 in running buffer (CPA+150 mM NaCl+0.005% Tw20 at pH 5.5, pH 6.0 or pH 7.4) and injected over the ligand surfaces (association: 120 s at 45 μL/min; dissociation: 600s-3600 s at 45 μL/min). Experiments were carried out at 25° C.

Test [2] concerns the target T2, cyno FcRn/b2M (cyno, UniProt Q8SPV9 24-297; Q8SPW0 21-119, biotinylated).
T2 construct: bought recombinant biotinylated protein (Immunitrack ITF05 or ACRO FCM-C82W5); also called cFcRn; cFcRn/cb2M
Put plainly: SPR pH 6.0.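 Also: surface plasmon resonance kinetics at 25 °C, diluted periplasmic extracts injected over immobilized ligand surfaces, 120 s association then 600–3600 s dissociation, running buffer containing 150 mM NaCl.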
Experimental: as §1

In test [3] the target is T1, human FcRn/b2M. Put plainly: SPR pH 7.4.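 Also: surface plasmon resonance kinetics, periplasmic extracts diluted 1:10 flowed over immobilized target at 25 °C, 120 s association then 600–3600 s dissociation, buffer with 150 mM NaCl.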
Experimental: as §1
Test [4] has as its target T2, cyno FcRn/b2M. The experiment in a line: SPR pH 7.4.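 Also: surface plasmon resonance kinetics, periplasmic extracts diluted 1:10 flowed over immobilized target at 25 °C, 120 s association then 600–3600 s dissociation, buffer with 150 mM NaCl.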
Experimental: as §1
Test [5] addresses T1, human FcRn/b2M. The experiment in a line: SPR off-rate; pH 7.4 vs pH 6.0.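 Also: surface plasmon resonance with diluted periplasmic extracts flowed over ligand surfaces, 120 s association and 600–3600 s dissociation at 25 °C, running buffer containing 150 mM NaCl.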
Experimental: as §1
In test [6] the target is T2, cyno FcRn/b2M. The experiment in a line: SPR off-rate; pH 7.4 vs pH 6.0.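 Also: surface plasmon resonance with diluted periplasmic extracts flowed over ligand surfaces, 120 s association and 600–3600 s dissociation at 25 °C, running buffer containing 150 mM NaCl.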
Experimental: as §1

Substitutions are numbered along the chain they refer to.

T2 sequence (Q8SPV9 24-297 limits assumed, chain 1 of 2): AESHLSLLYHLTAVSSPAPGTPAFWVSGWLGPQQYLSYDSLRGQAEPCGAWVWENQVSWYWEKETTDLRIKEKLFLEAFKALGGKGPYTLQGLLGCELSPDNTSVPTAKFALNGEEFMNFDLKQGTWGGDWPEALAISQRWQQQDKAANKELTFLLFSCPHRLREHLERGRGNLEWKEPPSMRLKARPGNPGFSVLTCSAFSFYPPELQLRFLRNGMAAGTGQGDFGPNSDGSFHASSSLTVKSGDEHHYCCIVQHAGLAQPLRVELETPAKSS
T2 sequence (Q8SPW0 21-119 limits assumed, chain 2 of 2): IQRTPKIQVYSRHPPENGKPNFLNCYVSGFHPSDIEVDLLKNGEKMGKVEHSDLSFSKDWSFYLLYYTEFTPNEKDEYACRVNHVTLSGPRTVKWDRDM
T1 sequence (chain, as listed by the source limits assumed, chain 1 of 2): as the sequence (Q8SPV9 24-297 limits assumed, chain 1 of 2) above, with D39N, Q44E, S99G, G189S, N190S, M217L, T269S counted along it
T1 sequence (P61769 21-119 limits assumed, chain 2 of 2): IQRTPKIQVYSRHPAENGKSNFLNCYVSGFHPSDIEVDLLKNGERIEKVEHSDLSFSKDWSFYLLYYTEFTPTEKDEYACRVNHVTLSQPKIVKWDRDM

B1: T0263018B11 A33G (VHH, name in Kabat numbering)
VHH: EVQLVESGGGVVQPGGSLRLSCAASGFTFSSYGMYWVRQAPGKGLEWVSAISSGGGSTDYADSVKGRFTISRDNSKNTLYLQMNSLRPEDTALYYCAADTLYTSLTWYSYWGQGTLVTVSS
notes: FLAG3-His6 tagged
One may read the koff as the rate constant with which the complex falls apart. High values mean a short-lived complex, low ones a long-lived complex. As to B1, the koff is 0.0013 s⁻¹ in test [1], 0.0011 s⁻¹ in test [2], 0.034 s⁻¹ in test [3] and 0.04 s⁻¹ in test [4]. For the same molecule, the “kd ratio pH 7.4/6.0” value in test [5] is 26; in test [6], 36.

B2: T0263018B11 Y98W (VHH, name in Kabat numbering)
VHH: B1 VHH with G33A, Y102W
notes: FLAG3-His6 tagged
With B2, the “kd ratio pH 7.4/6.0” value in test [6] came to 45.

B3: T0263018B11 S56M (VHH, name in Kabat numbering)
VHH: B1 VHH with G33A, S57M
notes: FLAG3-His6 tagged
On to B3, for which the “kd ratio pH 7.4/6.0” value in test [5] came to 31.

B4: T0263018B11 A93T (VHH, name in Kabat numbering)
VHH: B1 VHH with G33A, A97T
notes: FLAG3-His6 tagged
As for B4, the results for the koff in test [1], in test [2] and in test [4] were 0.0025 s⁻¹, 0.0019 s⁻¹ and 0.12 s⁻¹, respectively.

B5: T0263018B11 F29I (VHH, name in Kabat numbering)
VHH: B1 VHH with F29I, G33A
notes: FLAG3-His6 tagged
As for B5, the koff was 0.0015 s⁻¹ in test [2] and 0.083 s⁻¹ in test [4].

B6: T0263018B11 S56E (VHH, name in Kabat numbering)
VHH: B1 VHH with G33A, S57E
notes: FLAG3-His6 tagged
For the molecule B6, the off-rate (koff) in test [1] is 0.0026 s⁻¹; in test [2] it was 0.0019 s⁻¹; in test [4] it was 0.1 s⁻¹.

B7: T0263018B11 T96G (VHH, name in Kabat numbering)
VHH: B1 VHH with G33A, T100G
notes: FLAG3-His6 tagged
Take B7: the koff in test [1] is 0.014 s⁻¹; in test [2], 0.0084 s⁻¹; in test [4], 0.21 s⁻¹.

B8: T0263018B11 S30M (VHH, name in Kabat numbering)
VHH: B1 VHH with S30M, G33A
notes: FLAG3-His6 tagged
With B8, the koff was found to be 0.00074 s⁻¹ in test [1], 0.00069 s⁻¹ in test [2] and 0.022 s⁻¹ in test [4].

B9: T0263018B11 A33P (VHH, name in Kabat numbering)
VHH: B1 VHH with G33P
notes: FLAG3-His6 tagged
As for B9, the koff in test [2] was 0.00099 s⁻¹; in test [3], 0.041 s⁻¹; in test [4] it was 0.045 s⁻¹.

B10: T0263018B11 T57G (VHH, name in Kabat numbering)
VHH: B1 VHH with G33A, T58G
notes: FLAG3-His6 tagged
For B10, the koff amounted to 0.0013 s⁻¹ in test [1], 0.0011 s⁻¹ in test [2] and 0.04 s⁻¹ in test [4].

B11: T0263018B11 Y32N (VHH, name in Kabat numbering)
VHH: B1 VHH with Y32N, G33A
notes: FLAG3-His6 tagged
As to B11, the koff was determined as 0.0025 s⁻¹ in test [1], 0.0018 s⁻¹ in test [2] and 0.083 s⁻¹ in test [4].

B12: T0263018B11 S52aD (VHH, name in Kabat numbering)
VHH: B1 VHH with G33A, S53D
notes: FLAG3-His6 tagged
B12: the dissociation rate constant (koff) in test [2] was found to be 0.00089 s⁻¹; in test [3] it was 0.044 s⁻¹; in test [4] it was 0.051 s⁻¹.

B13: T0263018B11 W100cM (VHH, name in Kabat numbering)
VHH: B1 VHH with G33A, W107M
notes: FLAG3-His6 tagged
B13: in test [6], the “kd ratio pH 7.4/6.0” value is 59.

B14: T0263018B11 A33T (VHH, name in Kabat numbering)
VHH: B1 VHH with G33T
notes: FLAG3-His6 tagged
For the molecule B14, the koff in test [1] was 0.00011 s⁻¹; in test [2] it was 0.00011 s⁻¹; in test [3], 0.0038 s⁻¹; in test [4] it was 0.0058 s⁻¹. Also, the “kd ratio pH 7.4/6.0” value in test [5] stood at 36; in test [6] it was 54.

B15: T0263018B11 A33H (VHH, name in Kabat numbering)
VHH: B1 VHH with G33H
notes: FLAG3-His6 tagged
For the molecule B15, the koff amounted to 0.00076 s⁻¹ in test [1], 0.00077 s⁻¹ in test [2] and 0.037 s⁻¹ in test [4].

B16: T0263018B11 T96W (VHH, name in Kabat numbering)
VHH: B1 VHH with G33A, T100W
notes: FLAG3-His6 tagged
As to B16, the “kd ratio pH 7.4/6.0” value in test [6] was 54.

B17: T0263018B11 F27I (VHH, name in Kabat numbering)
VHH: B1 VHH with F27I, G33A
notes: FLAG3-His6 tagged
With B17, the koff in test [2] was determined as 0.00036 s⁻¹; in test [3], 0.045 s⁻¹; in test [4], 0.031 s⁻¹.

B18: T0263018B11 D58A (VHH, name in Kabat numbering)
VHH: B1 VHH with G33A, D59A
notes: FLAG3-His6 tagged
In the case of B18, the koff was found to be 0.0089 s⁻¹ in test [1], 0.0026 s⁻¹ in test [2] and 0.036 s⁻¹ in test [4].

B19: T0263018B11 S100A (VHH, name in Kabat numbering)
VHH: B1 VHH with G33A, S104A
notes: FLAG3-His6 tagged
On to B19, for which the results for the koff in test [1], in test [2] and in test [4] were 0.00025 s⁻¹, 0.00021 s⁻¹ and 0.0099 s⁻¹, respectively.

B20: T0263018B11 F29Q (VHH, name in Kabat numbering)
VHH: B1 VHH with F29Q, G33A
notes: FLAG3-His6 tagged
Regarding B20, the koff in test [1] was found to be 0.0021 s⁻¹; in test [2], 0.0017 s⁻¹; in test [4], 0.088 s⁻¹.

B21: T0263018B11 T57E (VHH, name in Kabat numbering)
VHH: B1 VHH with G33A, T58E
notes: FLAG3-His6 tagged
With B21, the off-rate (koff) in test [1] worked out at 0.00076 s⁻¹; in test [2], 0.00055 s⁻¹; in test [4], 0.024 s⁻¹.

B22: T0263018B11 T57D (VHH, name in Kabat numbering)
VHH: B1 VHH with G33A, T58D
notes: FLAG3-His6 tagged
For B22, the koff in test [1] came to 0.00073 s⁻¹; in test [2], 0.00063 s⁻¹; in test [4], 0.026 s⁻¹.

B23: T0263018B11 A33S (VHH, name in Kabat numbering)
VHH: B1 VHH with G33S
notes: FLAG3-His6 tagged
B23: the koff turned out to be 0.0015 s⁻¹ in test [1], 0.0013 s⁻¹ in test [2], 0.059 s⁻¹ in test [3] and 0.065 s⁻¹ in test [4]. In addition, the “kd ratio pH 7.4/6.0” value in test [5] came to 39; in test [6], 50.

B24: T0263018B11 Y98L (VHH, name in Kabat numbering)
VHH: B1 VHH with G33A, Y102L
notes: FLAG3-His6 tagged
B24: in test [6], the “kd ratio pH 7.4/6.0” value stood at 36.

B25: T0263018B11 T28G (VHH, name in Kabat numbering)
VHH: B1 VHH with T28G, G33A
notes: FLAG3-His6 tagged
B25: the koff in test [1] came to 0.00075 s⁻¹; in test [2] it was 0.0002 s⁻¹; in test [4], 0.028 s⁻¹.

B26: T0263018B11 T57Y (VHH, name in Kabat numbering)
VHH: B1 VHH with G33A, T58Y
notes: FLAG3-His6 tagged
Take B26: the koff in test [2] is 0.00084 s⁻¹; in test [3], 0.033 s⁻¹; in test [4], 0.035 s⁻¹.

B27: T0263018B11 Y32M (VHH, name in Kabat numbering)
VHH: B1 VHH with Y32M, G33A
notes: FLAG3-His6 tagged
Take B27: the koff in test [1] was 0.006 s⁻¹; in test [2], 0.0025 s⁻¹; in test [4], 0.18 s⁻¹.

B28: T0263018B11 T57M (VHH, name in Kabat numbering)
VHH: B1 VHH with G33A, T58M
notes: FLAG3-His6 tagged
As for B28, the dissociation rate constant (koff) in test [1] was 0.00098 s⁻¹; in test [2], 0.0007 s⁻¹; in test [4], 0.027 s⁻¹.

B29: T0263018B11 Y32A (VHH, name in Kabat numbering)
VHH: B1 VHH with Y32A, G33A
notes: FLAG3-His6 tagged
As to B29, in test [6], the “kd ratio pH 7.4/6.0” value came out at 70.

B30: T0263018B11 T28A (VHH, name in Kabat numbering)
VHH: B1 VHH with T28A, G33A
notes: FLAG3-His6 tagged
With B30, the koff in test [2] turned out to be 0.00052 s⁻¹; in test [3], 0.046 s⁻¹; in test [4], 0.033 s⁻¹.

B31: T0263018B11 S100W (VHH, name in Kabat numbering)
VHH: B1 VHH with G33A, S104W
notes: FLAG3-His6 tagged
For the molecule B31, the figures for the koff in test [1], in test [2] and in test [4] were 0.00062 s⁻¹, 0.00029 s⁻¹ and 0.015 s⁻¹, respectively.

B32: T0263018B11 G26L (VHH, name in Kabat numbering)
VHH: B1 VHH with G26L, G33A
notes: FLAG3-His6 tagged
In the case of B32, the koff in test [2] turned out to be 0.00087 s⁻¹; in test [3], 0.041 s⁻¹; in test [4] it was 0.054 s⁻¹.

B33: T0263018B11 A33V (VHH, name in Kabat numbering)
VHH: B1 VHH with G33V
notes: FLAG3-His6 tagged
B33: the koff in test [1] was 0.00022 s⁻¹; in test [2], 0.00024 s⁻¹; in test [3] it was 0.0082 s⁻¹; in test [4] it was 0.013 s⁻¹. The “kd ratio pH 7.4/6.0” value in test [5] is 37; in test [6] it was 53.

B34: T0263018B11 W100cE (VHH, name in Kabat numbering)
VHH: B1 VHH with G33A, W107E
notes: FLAG3-His6 tagged
As for B34, in test [6], the “kd ratio pH 7.4/6.0” value stood at 71.

B35: T0263018B11 T57R (VHH, name in Kabat numbering)
VHH: B1 VHH with G33A, T58R
notes: FLAG3-His6 tagged
For the molecule B35, the values for the koff in test [1], in test [2] and in test [4] were 0.00086 s⁻¹, 0.00071 s⁻¹ and 0.026 s⁻¹, respectively.

B36: T0263018B11 A33Q (VHH, name in Kabat numbering)
VHH: B1 VHH with G33Q
notes: FLAG3-His6 tagged
For B36, the koff in test [1] was determined as 0.0018 s⁻¹; in test [2] it was 0.0027 s⁻¹; in test [3] it was 0.065 s⁻¹; in test [4] it was 0.13 s⁻¹. Also, the “kd ratio pH 7.4/6.0” value is 36 in test [5] and 48 in test [6].

B37: T0263018B11 F29P (VHH, name in Kabat numbering)
VHH: B1 VHH with F29P, G33A
notes: FLAG3-His6 tagged
As to B37, the koff in test [1] worked out at 0.0026 s⁻¹; in test [2] it was 0.0019 s⁻¹.
